Each block holds one binder with its values, some of them ahead of it.
Tests used:
[1] = target: T1, KDR (1-3) monomer (UniProt P35968 20-327, limits assumed, biotin-labeled in the ELISA of Example 8); experiment: competition ELISA: plate coated with VEGF (8-109), 100 pM biotin-labeled KDR(1-3), serial dilutions of the competing VEGF (Example 8)
T1 construct: domain: domains 1 to 3; Genentech reagent; also called domains 1 to 3 of KDR
Protocol: (§1) After 1 hour, the plates were washed, and the bound protein stained with streptavidin horseradish peroxidase conjugate (Pharmacia) and assayed. Affinities were estimated as IC₅₀ values: the concentration of KDR(1-3) or Flt(1-3) that blocked 50% of protein binding.

[2] = target: T2, Flt-1 (1-3) monomer (UniProt P17948 27-331, limits assumed, biotin-labeled in the ELISA of Example 8); experiment: competition ELISA: plate coated with VEGF (8-109), 100 pM biotin-labeled Flt1(1-3), serial dilutions of the competing VEGF (Example 8)
T2 construct: domain: domains 1 to 3; Genentech reagent; also called Flt(1-3); domains 1 to 3 of Flt-1
Protocol: as §1

[3] = target: T1, KDR (1-3) monomer; experiment: competition ELISA vs biotinylated VEGF (8-109), soluble KDR (1-3) captured by MAKD5
Protocol: Receptor binding assays were performed in 96-well immunoplates (Maxisorp, Nunc-Immunoplate, Nalge Nunc International, Rochester, N.Y.). Each well was coated with 100 μl of a solution containing 8 μg/ml of a monoclonal antibody to KDR known as MAKD5 (Genentech, South San Francisco, Calif.) in 50 mM carbonate buffer at pH 9.6 and incubated at 4° C. overnight. The supernatant was discarded, the wells were washed three times in washing buffer (0.05% Tween 20 in PBS), and the plate was blocked (150 μl per well) with block buffer (0.5% BSA, 0.01% thimerosal in PBS) at room temperature for one hour. The supernatant was discarded, and the wells were washed.
Aliquots of this mixture (100 μl) were added to the precoated microtiter wells and the plate was incubated for 1 hour at room temperature. […] The wells were then incubated with 3,3′, 5,5′-tetramethyl benzidine (0.2 gram/liter; Kirkegaard & Perry Laboratories, Gaithersburg, Md.) for about 10 minutes at room temperature. Absorbance was read at 450 nm on a Vmax plate reader (Molecular Devices, Menlo Park, Calif.).
Titration curves were fit with a four-parameter nonlinear regression curve-fitting program (KaleidaGraph, Synergy Software, Reading, Pa.).

T1 sequence (P35968 20-327 limits assumed): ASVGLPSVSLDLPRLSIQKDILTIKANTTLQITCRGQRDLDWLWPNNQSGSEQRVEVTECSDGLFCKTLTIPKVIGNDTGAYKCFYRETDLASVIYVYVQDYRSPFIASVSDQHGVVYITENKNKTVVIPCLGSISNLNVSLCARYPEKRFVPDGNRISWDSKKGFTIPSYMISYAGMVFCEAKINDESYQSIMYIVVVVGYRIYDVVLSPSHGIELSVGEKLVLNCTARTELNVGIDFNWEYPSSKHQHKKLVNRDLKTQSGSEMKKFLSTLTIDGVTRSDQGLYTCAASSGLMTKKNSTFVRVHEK
T2 sequence (P17948 27-331 limits assumed): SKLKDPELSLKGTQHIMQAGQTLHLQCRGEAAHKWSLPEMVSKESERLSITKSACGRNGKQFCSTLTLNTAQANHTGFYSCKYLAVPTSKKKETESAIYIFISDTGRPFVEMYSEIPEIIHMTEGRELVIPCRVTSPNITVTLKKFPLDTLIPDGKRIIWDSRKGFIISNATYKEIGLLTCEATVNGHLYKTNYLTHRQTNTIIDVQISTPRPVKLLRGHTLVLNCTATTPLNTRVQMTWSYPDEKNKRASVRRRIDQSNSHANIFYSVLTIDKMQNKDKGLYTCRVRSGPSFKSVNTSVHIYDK

- IC50 [3]: 4 nM
- Relative Binding Affinity (ratio to native VEGF (8-109)) [3]: 4 fold
B3: LK-VRB-22s (ligand, human, UniProt P15692-4 27-135, looked up)
chain: APMAEGGGQNHHEVVKFEDVLRRSSCHPIETLVDIFQEYPDEIEYIFKPSCVPLMRCGGCCNDEMLECVPTEESNITMQIMRIKPHQGQHIGEMSFLQHNKCECRPKKD

- IC50 [3]: 10 nM
- Relative Binding Affinity (ratio to native VEGF (8-109)) [3]: 10 fold
B4: LK-VRB-24s (ligand, human, UniProt P15692-4 27-135, looked up)
chain: APMAEGGGQNHHEVVKFEDVLRRSSCHPIETLVDIFQEYPDEIEYIFKPSCVPLMRCGGCCNSEMLECVPTEESNITMQIMRIKPHQGQHIGEMSFLQHNKCECRPKKD

- IC50 [3]: 4 nM
- Relative Binding Affinity (ratio to native VEGF (8-109)) [3]: 4 fold
B5: LK-VRB-25s (ligand, human, UniProt P15692-4 27-135, looked up)
chain: APMAEGGGQNHHEVVKFEDVLRRSSCHPIETLVDIFQEYPDEIEYIFKPSCVPLMRCGGCCNSEGRECVPTEESNITMQIMRIKPHQGQHIGEMSFLQHNKCECRPKKD

- IC50 [3]: 3 nM
- Relative Binding Affinity (ratio to native VEGF (8-109)) [3]: 3 fold
B6: LK-VRB-21s (ligand, human, UniProt P15692-4 27-135, looked up)
chain: APMAEGGGQNHHEVVKFEDVLRRSSCHPIETLVDIFQEYPDEIEYIFKPSCVPLMRCGGCCNSEGLECVPTEESNITMQIMRIKPHQGQHIGEMSFLQHNKCECRPKKD

- IC50 [3]: 2 nM
- Relative Binding Affinity (ratio to native VEGF (8-109)) [3]: 2 fold
B7: LK-VRB-15s (ligand, human, UniProt P15692-4 27-135, looked up)
chain: APMAEGGGQNHHEVVKFMDVLQRSSCHPIETLVDIFQEYPDEIEYIFKPSCVPLMRCGGCCNSEMRECVPTEESNITMQIMRIKPHQGQHIGEMSFLQHNKCECRPKKD

- IC50 [3]: 0.5 nM
- Relative Binding Affinity (ratio to native VEGF (8-109)) [3]: 0.5 fold
B8: LK-VRB-14s (ligand, human, UniProt P15692-4 27-135, looked up)
chain: APMAEGGGQNHHEVVKFMDVLRRSYCHPIETLVDIFQEYPDEIEYIFKPSCVPLMRCGGCCNSEMRECVPTEESNITMQIMRIKPHQGQHIGEMSFLQHNKCECRPKKD

- IC50 [3]: 0.6 nM
- Relative Binding Affinity (ratio to native VEGF (8-109)) [3]: 0.6 fold
B9: LK-VRB-16s (ligand, human, UniProt P15692-4 27-135, looked up)
chain: APMAEGGGQNHHEVVKFMDVYRRSSCHPIETLVDIFQEYPDEIEYIFKPSCVPLMRCGGCCNSEMRECVPTEESNITMQIMRIKPHQGQHIGEMSFLQHNKCECRPKKD

- IC50 [3]: 3 nM
- Relative Binding Affinity (ratio to native VEGF (8-109)) [3]: 3 fold
B10: LK-VRB-17s (ligand, human, UniProt P15692-4 27-135, looked up)
chain: APMAEGGGQNHHEVVKFEDVLRRSYCHPIETLVDIFQEYPDEIEYIFKPSCVPLMRCGGCCNSEMRECVPTEESNITMQIMRIKPHQGQHIGEMSFLQHNKCECRPKKD

- IC50 [3]: 23 nM
- Relative Binding Affinity (ratio to native VEGF (8-109)) [3]: 23 fold
B14: LK-VRB-26s (ligand, human, UniProt P15692-4 27-135, looked up)
chain: APMAEGGGQNHHEVVKFEDVLRRSSCHPIETLVDIFQEYPDEIEYIFKPSCVPLMRCGGCCNDEMRECVPTEESNITMQIMRIKPHQGQHIGEMSFLQHNKCECRPKKD

- IC50 [3]: 11 nM
- Relative Binding Affinity (ratio to native VEGF (8-109)) [3]: 11 fold
B17: LK-VRB-23s (ligand, human, UniProt P15692-4 27-135, looked up)
chain: APMAEGGGQNHHEVVKFEDVLRRSSCHPIETLVDIFQEYPDEIEYIFKPSCVPLMRCGGCCNDEGRECVPTEESNITMQIMRIKPHQGQHIGEMSFLQHNKCECRPKKD

- IC50 [3]: 2 nM
- Relative Binding Affinity (ratio to native VEGF (8-109)) [3]: 2 fold
B25: LK-VRB-20s (ligand, human, UniProt P15692-4 27-135, looked up)
chain: APMAEGGGQNHHEVVKFMDVLRRSSCHPIETLVDIFQEYPDEIEYIFKPSCVPLMRCGGCCNSEMRECVPTEESNITMQIMRIKPHQGQHIGEMSFLQHNKCECRPKKD

The remaining lines, values behind:

B1: native VEGF (1-109) (ligand, human, UniProt P15692 207-315, looked up)
chain: APMAEGGGQNHHEVVKFMDVYQRSYCHPIETLVDIFQEYPDEIEYIFKPSCVPLMRCGGCCNDEGLECVPTEESNITMQIMRIKPHQGQHIGEMSFLQHNKCECRPKKD
modifications: 125I-labeled where used as tracer
- IC50 [1]: 10 nM
- IC50 [2]: 6 nM

B2: LK-VRB-19s (ligand, human, UniProt P15692-4 27-135, looked up)
chain: APMAEGGGQNHHEVVKFEDVYRRSSCHPIETLVDIFQEYPDEIEYIFKPSCVPLMRCGGCCNSEMRECVPTEESNITMQIMRIKPHQGQHIGEMSFLQHNKCECRPKKD
notes: one of the two is probably misprinted
- IC50 [3]: 7 nM
- Relative Binding Affinity (ratio to native VEGF (8-109)) [3]: 7 fold

B11: Arg 105 (ligand)
chain: APMAEGGGQNHHEVVKFMDVYQRSYCHPIETLVDIFQEYPDEIEYIFKPSCVPLMRCGGCCNDEGLECVPTEESNITMQIMRIKPHQGQHIGEMSFLQHNKCECAPKKD
- fold reduction in binding (IC50 variant / IC50 VEGF(1-109)) [1]: 1 fold
- fold reduction in binding (IC50 variant / IC50 VEGF(1-109)) [2]: 1 fold

B12: LK-VRB-10s (ligand, human, UniProt P15692-4 27-135, looked up)
chain: APMAEGGGQNHHEVVKFMDVYQRSSCHPIETLVDIFQEYPDEIEYIFKPSCVPLMRCGGCCNSEMRECVPTEESNITMQIMRIKPHQGQHIGEMSFLQHNKCECRPKKD
- IC50 [3]: 0.5 nM
- Relative Binding Affinity (ratio to native VEGF (8-109)) [3]: 0.5 fold

B13: Glu 64* (ligand)
chain: APMAEGGGQNHHEVVKFMDVYQRSYCHPIETLVDIFQEYPDEIEYIFKPSCVPLMRCGGCCNDAGLECVPTEESNITMQIMRIKPHQGQHIGEMSFLQHNKCECRPKKD
- fold reduction in binding (IC50 variant / IC50 VEGF(1-109)) [1]: 10 fold
- fold reduction in binding (IC50 variant / IC50 VEGF(1-109)) [2]: 5 fold

B15: Gly 65** (ligand)
chain: APMAEGGGQNHHEVVKFMDVYQRSYCHPIETLVDIFQEYPDEIEYIFKPSCVPLMRCGGCCNDEALECVPTEESNITMQIMRIKPHQGQHIGEMSFLQHNKCECRPKKD
- fold reduction in binding (IC50 variant / IC50 VEGF(1-109)) [1]: 1 fold
- fold reduction in binding (IC50 variant / IC50 VEGF(1-109)) [2]: 1 fold

B16: LK-VRB-11s (ligand, human, UniProt P15692-4 27-135, looked up)
chain: APMAEGGGQNHHEVVKFEDVLQRSYCHPIETLVDIFQEYPDEIEYIFKPSCVPLMRCGGCCNSEMRECVPTEESNITMQIMRIKPHQGQHIGEMSFLQHNKCECRPKKD
- IC50 [3]: 2 nM
- Relative Binding Affinity (ratio to native VEGF (8-109)) [3]: 2 fold

B18: Gln 79* (ligand)
chain: APMAEGGGQNHHEVVKFMDVYQRSYCHPIETLVDIFQEYPDEIEYIFKPSCVPLMRCGGCCNDEGLECVPTEESNITMAIMRIKPHQGQHIGEMSFLQHNKCECRPKKD
- fold reduction in binding (IC50 variant / IC50 VEGF(1-109)) [1]: 55 fold
- fold reduction in binding (IC50 variant / IC50 VEGF(1-109)) [2]: 3 fold

B19: Asp 63** (ligand)
chain: APMAEGGGQNHHEVVKFMDVYQRSYCHPIETLVDIFQEYPDEIEYIFKPSCVPLMRCGGCCNAEGLECVPTEESNITMQIMRIKPHQGQHIGEMSFLQHNKCECRPKKD
- fold reduction in binding (IC50 variant / IC50 VEGF(1-109)) [1]: 1 fold
- fold reduction in binding (IC50 variant / IC50 VEGF(1-109)) [2]: 8 fold

B20: Glu 103 (ligand)
chain: APMAEGGGQNHHEVVKFMDVYQRSYCHPIETLVDIFQEYPDEIEYIFKPSCVPLMRCGGCCNDEGLECVPTEESNITMQIMRIKPHQGQHIGEMSFLQHNKCACRPKKD
- fold reduction in binding (IC50 variant / IC50 VEGF(1-109)) [1]: 1 fold
- fold reduction in binding (IC50 variant / IC50 VEGF(1-109)) [2]: 1 fold

B21: Gln 89 (ligand)
chain: APMAEGGGQNHHEVVKFMDVYQRSYCHPIETLVDIFQEYPDEIEYIFKPSCVPLMRCGGCCNDEGLECVPTEESNITMQIMRIKPHQGAHIGEMSFLQHNKCECRPKKD
- fold reduction in binding (IC50 variant / IC50 VEGF(1-109)) [1]: 1 fold
- fold reduction in binding (IC50 variant / IC50 VEGF(1-109)) [2]: 1 fold

B22: Gln 22** (ligand)
chain: APMAEGGGQNHHEVVKFMDVYARSYCHPIETLVDIFQEYPDEIEYIFKPSCVPLMRCGGCCNDEGLECVPTEESNITMQIMRIKPHQGQHIGEMSFLQHNKCECRPKKD
- fold reduction in binding (IC50 variant / IC50 VEGF(1-109)) [1]: 6 fold
- fold reduction in binding (IC50 variant / IC50 VEGF(1-109)) [2]: 15 fold

B23: LK-VRB-12s (ligand, human, UniProt P15692-4 27-135, looked up)
chain: APMAEGGGQNHHEVVKFEDVYRRSYCHPIETLVDIFQEYPDEIEYIFKPSCVPLMRCGGCCNSEMRECVPTEESNITMQIMRIKPHQGQHIGEMSFLQHNKCECRPKKD
- IC50 [3]: 0.4 nM
- Relative Binding Affinity (ratio to native VEGF (8-109)) [3]: 0.4 fold

B24: LK-VRB-13s (ligand, human, UniProt P15692-4 27-135, looked up)
chain: APMAEGGGQNHHEVVKFEDVYQRSSCHPIETLVDIFQEYPDEIEYIFKPSCVPLMRCGGCCNSEMRECVPTEESNITMQIMRIKPHQGQHIGEMSFLQHNKCECRPKKD
- IC50 [3]: 14 nM
- Relative Binding Affinity (ratio to native VEGF (8-109)) [3]: 14 fold

— patent US20060269997A1 (Genentech, published 2006)
